In patent US10857209B2, “Lysosomal acid lipase and PPAR gamma ligands as immune therapies for cancer treatment” (Indiana University Research and Technology Corporation, priority 2016, dated 2020):

Legend:
mTOR pathway = assay: Flow cytometry of mTOR pathway in gated Ly6G+CD11b+ bone marrow cells; assay type: cell-based, mouse; details: 20 μmol/L, 2 hours
Method: For in vitro PPARγ ligand treatment, 9-HODE (Cayman Chemical Co., Ann Arbor, Mich., USA) was added into the culture medium of MDSCs to a final concentration of 20 μmol/L for 24 or 48 hours. For the study of the effect of PPARγ ligand on the mTOR signaling pathway, bone marrow cells were treated with 9-HODE (20 μmol/L) for 2 hours.
Single cells from the bone marrow of 5-month-old lal^+/+ and lal^−/− mice were prepared as described in Qu et al., Cancer Res. 2009; 69:7252-7261. After 20 μmol/L 9-HODE treatment for 2 hours, cells were harvested, and labeled with anti-Ly6G and CD11b cell surface antibody (eBioscience) at 4° C. for 15 minutes. Cells were then fixed and permeabilized using BD Cytofix/Cytoperm Fixation/Permeabilization Kit (BD Biosciences) according to the manufacturer's instructions, and incubated with Alexa Fluor 647-conjugated anti-mTOR antibody, Alexa Fluor 488-conjugated anti-S6 antibody, Alexa Fluor 488-conjugated anti-pS6 (Ser235/236) antibody, and rabbit anti-pmTOR (Ser2448) antibody (Cell Signaling Technology, Beverly, Mass., USA) at 4° C. overnight. For anti-pmTOR antibody staining, cells were incubated with Alexa Fluor 647-conjugated anti-rabbit IgG in the following day. Cells were washed and ready for flow cytometry analysis. Mean fluorescence intensities of the proteins in the gated Ly6G^+CD11b^+ area were analyzed. For flow cytometry analysis, ≥10,000 cells were acquired and scored using a LSRII machine (BD Biosciences). Data were processed using the CellQuest software program (BD Biosciences).

B16 melanoma cells [1] = assay: In vitro migration (wound healing) assay with pre-treated MDSCs; assay type: cell-based, mouse; details: co-culture with pre-treated lal−/− Ly6G+ cells; 24 hours; mitomycin C
Method: In vitro wound healing assay was performed to analyze B16 melanoma cell migration. Briefly, B16 melanoma cells were seeded at a density of 1.5×10^5 cells/well into a 24-well plate and incubated overnight to form a confluent monolayer. Scratch was created by scraping the cell monolayer in a straight line with a p200 pipet tip. After washing 3 times with DMEM, the medium was changed with DMEM containing 10% FBS and 5 μg/mL mitomycin C (Sigma-Aldrich, St. Louis, Mo., USA), and MDSCs pre-treated with 9-HODE or ethanol for 24 hours were added onto B16 melanoma cell monolayer at a density of 1×10^6 cells/well. Images were taken at 0 and 24 hours after creating the scratch. Migration was estimated by measuring the distances from one side of scratch to the other side using Image Pro-Plus software (Media Cybernetics, Rockville, Md., USA).

B16 melanoma cells [2] = assay: B16 melanoma growth and metastasis in myeloid-specific hLAL Tg/KO triple mice; assay type: in vivo, mouse; details: myeloid-specific expression
Description: lal^+/+ and lal^−/− mice of the FVBN background were bred in house. c-fms-rtTA/(TetO)7-CMV-hLAL; lal^−/− (Tg/KO) triple mice of the FVBN background is a previously generated triple transgenic mouse model with myeloid-specific doxycycline-inducible expression of wild-type human LAL (hLAL) in lal^−/− mice under the control of the c-fms promoter. All scientific protocols involving the use of animals have been approved by the Institutional Animal Care and Use Committee of Indiana University School of Medicine and followed guidelines established by the Panel on Euthanasia of the American Veterinary Medical Association. Animals were housed under Institutional Animal Care and Use Committee-approved conditions in a secured animal facility at the Indiana University School of Medicine.
Four-month-old lal^+/+ or lal^−/− mice were inoculated with 1×10^5 B16 melanoma cells subcutaneously into the flank region, and tumor size (length×width^2×π/6) was monitored every week for 3 weeks. For intravenous injection of B16 melanoma cells, 5×10^5 B16 melanoma cells in 200 μl PBS were injected into 4-month-old lal^+/+ or lal^−/− mice via tail vein. A pilot study was performed to determine the best ratio between MDSCs and B16 melanoma cells. For co-injection of MDSCs and B16 melanoma cells via tail vein, 2×10^6 MDSCs and 5×10^5 B16 melanoma cells were mixed and incubated at 37° C. and 5% CO2 for 30 minutes. […]

[3] = tested on: CD11b+Ly6G+, CD4+, CD8+, B220+ cells; assay: Flow cytometry of immune cells in organs of LAP-Tg/KO mice; assay type: in vivo, mouse
Method: Single-cell suspensions from the bone marrow, spleen, blood, liver, and lung were prepared and analyzed as described in Qu et al., Am J Pathol 2009, 174:944-956; Qu et al., Am J Pathol 2010, 176:2394-2404; Qu et al., J Immunol 2009, 182:1648-1659). Approximately 1×10^6 cells from various organs were blocked with FcR blocking antibodies in flow cytometry buffer (BD Biosciences, San Jose, Calif.) followed by incubation with isotype control or surface specific primary antibodies. Anti-CD11b (M1/70) PE-Cyanine7, anti-Ly6G (RB6-8c5) allophycocyanin-eFluor 780, anti-CD4 fluorescein isothiocyanate, anti-CD8 […], and anti-B220 allophycocyanin were purchased from e-Biosciences (San Diego, Calif.). Cells were analyzed on a LSRII machine (BD Biosciences). Data were analyzed using the BD FACStation software (CellQuest Pro version 2.2.1, BD Bio-sciences). The total gated number of positive cells (approximately 30,000 events) was calculated as the percentage of total gated viable cells. Quadrants were assigned using isotype control monoclonal antibody.

CD4+ T cells = assay: T cell proliferation assay with BALF cells of CCSP-Tg/KO mice; assay type: cell-based, mouse; details: BALF cells from doxycycline-treated CCSP-Tg/KO mice; BALF cells:CD4+ T cells 1:5, 4 days
Method: To determine the immunosuppressive effects of BALF cells, BALF was harvested by PBS. After the centrifugation, the resulting cell pellets were collected and used. CD4^+ T cells were prepared and CFSE labeled as we previously described (15). Labeled CD4^+ T cells were co-cultured with BALF cells in 96-well plates pre-coated with anti-CD3 monoclonal antibody (mAb) (2 μg/mL) and anti-CD28 mAb (5 μg/mL) at 37° C., 5% CO2 for 4 days. The ratio of BALF cells:CD4^+ T cells was 1:5. Proliferation of CD4^+ T cells was evaluated as CFSE dilution by FACS.

[4] = doxycycline-untreated LAP-Tg/KO triple mice (hLAL on)

| Molecule | phosphorylation of S6 (MFI) (mTOR pathway; gated lal−/− Ly6G+CD11b+ cells) | phosphorylation of mTOR (MFI) (mTOR pathway; gated lal−/− Ly6G+CD11b+ cells) | overall levels of mTOR and S6 (mTOR pathway; lal−/− MDSCs) | B16 melanoma cell migration into wound area (B16 melanoma cells [1]) | decrease of tumor volume vs untreated mice (B16 melanoma cells [2]; doxycycline-treated Tg/KO triple mice, B16 s.c., 2 weeks post-injection) | melanoma colonies in the lungs (B16 melanoma cells [2]; doxycycline-treated vs untreated Tg/KO triple mice, B16 i.v., 2 weeks) | CD11b+Ly6G+ cell expansion in blood, spleen, lung, bone marrow [3, 4] | percentage and total number of CD11b+Ly6G+ cells in the liver [3, 4] | CD4+ T cells in blood, lung and spleen ([3]; hepatocyte-specific expression, LAP-Tg/KO triple mice) | inhibition of T cell proliferation by BALF cells (CD4+ T cells) |
| --- | --- | --- | --- | --- | --- | --- | --- | --- | --- | --- |
| 9-hydroxyoctadecadienoic acid [9-HODE] | decreased phosphorylation of S6 | decreased phosphorylation of mTOR | reduced the overall levels of mTOR and S6 | delayed migration towards the scratch |  |  |  |  |  |  |
| hLAL: human lysosomal acid lipase expressed from a doxycycline-controlled tissue-specific transgene in lal−/− mice; never administered as a protein (protein, left off: small tags and cut ends, human lysosomal acid lipase expressed from a doxycycline-controlled tissue-specific transgene in lal−/− mice; never administered as a protein) GPKPVVFLQHGLLADSSNWVTNLANSSLGFILADAGFDVWMGNSRGNTWSRKHKTLSVSQDEFWAFSYDEMAKYDLPASINFILNKTGQEQVYYVGHSQGTTIGFIAFSQIPELAKRIKMFFALGPVASVAFCTSPMAKLGRLPDHLIKDLFGDKEFLPQSAFLKWLGTHVCTHVILKELCGNLCFLLCGFNERNLNMSRVDVYTTHSPAGTSVQNMLHWSQAVKFQKFQAFDWGSSAKNYFHYNQSYPPTYNVKDMLVPTAVWSGGHDWLADVYDVNILLTQITNLVFHESIPEWEHLDFIWGLDAPWRLYNKIINLMRKYQ |  |  |  |  | 50% | reduced number of melanoma colonies in the lungs | reduction of CD11b^+Ly6G^+ cell expansion was also observed in the blood, spleen, and lung, but not in the bone marrow | decreased to the levels of wild-type mice | increased CD4^+ T cells | reduced inhibition on T cell proliferation |
